Test results as given in PMC6764986.

Molecular target: ALFA-tagged target immobilized for SPR (TST-NEDD8-ALFA or GFP-ALFA)
Assay: SPR; ALFA-tagged ligand (TST-NEDD8-ALFA or GFP-ALFA) coupled by EDC-NHS to HC1000m chip; NbALFA as analyte; 20 °C, 40 µL/min, PBS with 0.002% Tween-20 pH 7.4; dissociation followed for > 7 h

B1: NbALFA (non-tagged) (VHH)
VHH: EVQLQESGGGLVQPGGSLRLSCTASGVTISALNAMAMGWYRQAPGERRVMVAAVSERGNAMYRESVQGRFTVTRDFTNKMVSLQMDNLKPEDTAVYYCHVLEDRVDSFHDYWGQGTQVTVSS
- Kd: 26 pM
